We go through three molecules from publication PMC7369975, “Scalable High-Performance Production of Recombinant Horseradish Peroxidase from E. coli Inclusion Bodies” (International Journal of Molecular Sciences, 2020).

Format in all cases: biochemical, Armoracia rusticana
Data set [1] concerns T1, pHRP (commercial plant HRP Type VI-A).
T1 construct: gene PRXC1A; native glycosylated enzyme from horseradish root, commercial preparation, variable isoenzyme mixture, 44 kDa
Nature of the data set: absorbance at […] nm, initial rate, 96-well plate. The note with it: 1 mM H2O2 (saturating), 50 mM phosphate-citrate, pH 5, 30 °C; ABTS 0.1-7 mM.

The test system is the same in data set [2]. Nature of the data set: absorbance at […] nm, initial rate, 96-well plate. The note with it: 1 mM H2O2 (saturating), 50 mM phosphate-citrate, pH 5; TMB 0.02-0.55 mM.
Substrate in data set [3]: Cc1cc(-c2cc(C)c(N)c(C)c2)cc(C)c1N
Nature of the data set: purified protein. To be noted: 1 mM H2O2 (saturating), 50 mM phosphate-citrate, pH 5, TMB 0.02-0.55 mM.

On to `CCn1c(=NN=c2sc3cc(S(=O)(=O)O)ccc3n2CC)sc2cc(S(=O)(=O)O)ccc21` [ABTS, 2,2′-azino-bis (3-ethylbenzothiazoline-6-sulphonic acid)], for which the Km (as a rule, the concentration of substrate that gives half-maximal velocity) in data set [1] was determined as 700 ± 140 µM.
Consider `Cc1cc(-c2cc(C)c(N)c(C)c2)cc(C)c1N` [TMB, 3,3′,5,5′-tetramethylbenzidine], for which the Km in data set [2] was 101 ± 20 µM.

B1: rHRP (refolded recombinant HRP, variant C1A) (Armoracia rusticana) (protein)
chain: QLTPTFYDNSCPNVSNIVRDTIVNELRSDPRIAASILRLHFHDCFVNGCDASILLDNTTSFRTEKDAFGNANSARGFPVIDRMKAAVESACPRTVSCADLLTIAAQQSVTLAGGPSWRVPLGRRDSLQAFLDLANANLPAPFFTLPQLKDSFRNVGLNRSSDLVALSGGHTFGKNQCRFIMDRLYNFSNTGLPDPTLNTTYLQTLRGLCPLNGNLSALVDFDLRTPTIFDNKYYVNLEEQKGLIQSDQELFSSPNATDTIPLVRSFANSTQTFFNAFVEAMDRMGNITPLTGTQGQIRLNCRVVNSNS
Take B1: in data set [3], the Michaelis-Menten constant (Km) is reported as 0.105 ± 0.014 mM; the Vmax (as a rule, the top rate of the reaction or transport when substrate is in excess) stood at 7150 µmol/min/mg; the kcat (commonly the number of substrate molecules converted per active site and unit of time at saturation) is 4170 ± 207 s⁻¹; the catalytic efficiency (kcat/Km) (in general, the turnover number divided by the Michaelis constant) was determined as 3.96e+07 ± 5.66e+06 M⁻¹ s⁻¹.
